Assay results: PMC10965808, “The alternative coproporphyrinogen III oxidase (CgoN) catalyzes the oxygen-independent conversion of coproporphyrinogen III into coproporphyrin III” (Frontiers in Microbiology, 2024)

T1: YtpQ (CgoN) (Priestia megaterium, UniProt D5DN20)
T1 construct: gene BMD_4814; full length, 270 residues; codon-adapted synthetic gene in pGEX-6P-1, N-terminal GST tag cut off with PreScission protease; E. coli BL21(DE3); calculated 30,781 Da; monomer (35 kDa by GPC)
T1 sequence (D5DN20 1-270): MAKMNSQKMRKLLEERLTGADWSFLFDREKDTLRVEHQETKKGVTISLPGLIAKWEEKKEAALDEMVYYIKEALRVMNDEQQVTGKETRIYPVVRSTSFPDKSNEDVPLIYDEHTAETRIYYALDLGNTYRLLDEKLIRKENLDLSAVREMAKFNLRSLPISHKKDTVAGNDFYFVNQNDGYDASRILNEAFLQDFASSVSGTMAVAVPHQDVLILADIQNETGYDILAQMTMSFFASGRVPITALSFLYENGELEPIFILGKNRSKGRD

B1: YtpQ (CgoN) (Priestia megaterium DSM 319) (protein)
chain: T1 sequence (D5DN20 1-270)
notes: full length, 270 residues; codon-adapted synthetic gene in pGEX-6P-1, N-terminal GST tag cut off with PreScission protease; E. coli BL21(DE3); calculated 30,781 Da; monomer (35 kDa by GPC)

What was measured:
[1] = target: T1, YtpQ (CgoN); assay: fluorescence assay, stimulation of activity by added FAD; type: biochemical; conditions: 3 μM FAD; 1 μM enzyme; 10 μM coproporphyrinogen III; anaerobic; pH 7.2; 30°C; no menadione
[2] = substrate: Cc1c2[nH]c(c1CCC(=O)O)Cc1[nH]c(c(CCC(=O)O)c1C)Cc1[nH]c(c(CCC(=O)O)c1C)Cc1[nH]c(c(C)c1CCC(=O)O)C2; assay: purified protein; type: biochemical, Priestia megaterium; conditions: anaerobic, 3 μM FAD, 5 μM menadione as electron acceptor, 1 μM enzyme, 1-20 μM substrate, HEPES pH 7.2, 0.02% Tween 80, 30°C

Molecule	fluorescence assay, stimulation of activity by added FAD [1]	Km [2]	kcat [2]
Cc1cc2nc3c(=O)[nH]c(=O)nc-3n(C[C@H](O)[C@H](O)[C@H](O)COP(=O)(O)OP(=O)(O)OC[C@H]3O[C@@H](n4cnc5c(N)ncnc54)[C@H](O)[C@@H]3O)c2cc1C [FAD]	FAD was identified as the electron-transferring cofactor of YtpQ		
B1		3.95 µM	0.0105 s⁻¹
